According to patent publication US20240327530A1 (ICHNOS SCIENCES, published 2024):

Assays:
[1] = target: T1, Human IL-1RAP, membrane-bound on human cells (HaCaT, dermal fibroblasts, neutrophils, PBMC, whole blood) (human, UniProt Q9NPH3 21-570); test: flow cytometry on human neutrophils, anti-human IgG PE-Cyanine7, relative geometric MFI (isotype subtracted)
T1 construct: Endogenous protein on cells
T1 sequence: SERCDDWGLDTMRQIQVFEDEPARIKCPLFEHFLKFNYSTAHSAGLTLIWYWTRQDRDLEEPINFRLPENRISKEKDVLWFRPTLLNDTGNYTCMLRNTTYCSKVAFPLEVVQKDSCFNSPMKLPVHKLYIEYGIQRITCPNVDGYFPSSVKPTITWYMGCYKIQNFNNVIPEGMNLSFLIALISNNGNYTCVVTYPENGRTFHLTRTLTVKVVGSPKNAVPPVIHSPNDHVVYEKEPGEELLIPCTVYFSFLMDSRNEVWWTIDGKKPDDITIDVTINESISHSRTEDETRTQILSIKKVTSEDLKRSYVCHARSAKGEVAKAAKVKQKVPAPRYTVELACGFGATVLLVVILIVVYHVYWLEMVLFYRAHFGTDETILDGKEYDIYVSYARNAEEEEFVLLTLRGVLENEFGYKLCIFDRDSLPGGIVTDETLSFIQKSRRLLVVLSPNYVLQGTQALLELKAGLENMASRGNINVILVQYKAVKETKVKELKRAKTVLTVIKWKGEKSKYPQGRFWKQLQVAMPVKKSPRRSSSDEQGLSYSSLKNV
Method: (§1) A dose-response of anti-human IL-1RAP_candidate_1 (●) or Isotype control_5 (▪) was incubated with various cell lines and cell types. Bound antibodies were detected with a monoclonal anti-human IgG PE-Cyanine7 secondary antibody. The graphs show the nonlinear sigmoidal regression binding curves (Relative Geometric Mean Fluorescence Intensity) for each cell lines. Each data point is a measurement for a given cell line. Multiple independent experiments were performed across several donors (HaCaT and HaCaT IL-1RAP KO: 4 and 3 independent experiments; Human Dermal Fibroblasts: 2 independent experiments—total of 5 donors; Human Neutrophil: 2 experiments—total of 6 donors; Cyno Dermal Fibroblasts: 2 independent experiment—total of 4 donors).
(§2) In brief, cells were harvested, counted, and plated at 50,000 cells/well in a 96-well round-bottom plate. […] The cells were gated based on size on FSC vs SSC and analyzed for PE-Cyanine7-geometric mean (geomean) fluorescence intensity using FLOWJO® software. Finally, relative geomean fluorescence intensity was calculated by subtracting fluorescence of anti-human IL-1RAP_candidate_1 per fluorescence of Isotype control_5. […]

[2] = target: T1, Human IL-1RAP, membrane-bound on human …; test: flow cytometry on HaCaT wild-type cells, anti-human IgG PE-Cyanine7, relative geometric MFI (isotype subtracted)
Method: as §1, §2

[3] = target: T1, Human IL-1RAP, membrane-bound on human …; test: flow cytometry on normal human fibroblasts, nonlinear sigmoidal regression
Method: as §1, with “Bound” for “A dose-response of anti-human IL-1RAP_candidate_1 (●) or Isotype control_5 (▪) was incubated with various cell lines and cell types. Bound”
as §2, with “plate. The plate was centrifuged at 350 g for 3 minutes and the cells were resuspended in 50 μl of FACS® buffer (PBS (1×)+2.5% FCS+2 mM EDTA+0.05% NaN₃) containing various concentrations (ranging from 50 to 0.00003 μg/ml) of either anti-human IL-1RAP_candidate_1 or Isotype control_5 antibodies.” for “plate.”

B1: Anti-IL-1RAP-C8-RecC-ES-IgG1LALA (antibody, V domains shown)
VH: QVQLVQSGAEVKKPGSSVKVSCKASGSPAEPYAIQWVRQAPGQGLEWMGYIIPSLGGYDYAQKFQGRVTITADESTSTAYMELSSLRSEDTAVYYCARGQTLYESGRQFDIWGQGTLVTVSS
VL: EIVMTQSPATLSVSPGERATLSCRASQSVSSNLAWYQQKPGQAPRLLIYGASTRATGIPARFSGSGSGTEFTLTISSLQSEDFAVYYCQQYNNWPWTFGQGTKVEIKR
notes: also called ISB 880-C8-recC-ES
- EC50 (read off the curve) [1]: ~0.2 µg/mL
- EC50 (read off the curve) [2]: ~0.1 µg/mL
- Kd [3]: 3.1 nM
